Counter-ions that a name gives are not always drawn. Like-named read-outs stand apart in the source and are kept apart here.
B1: free PH20: recombinant human hyaluronidase PH20 obtained from Halozyme, Inc, unconjugated (protein, UniProt P38567 36-490, looked up)
Hyaluronidase PH-20: LNFRAPPVIPNVPFLWAWNAPSEFCLGKFDEPLDMSLFSFIGSPRINATGQGVTIFYVDRLGYYPYIDSITGVTVNGGIPQKISLQDHLDKAKKDITFYMPVDNLGMAVIDWEEWRPTWARNWKPKDVYKNRSIELVQQQNVQLSLTEATEKAKQEFEKAGKDFLVETIKLGKLLRPNHLWGYYLFPDCYNHHYKKPGYNGSCFNVEIKRNDDLSWLWNESTALYPSIYLNTQQSPVAATLYVRNRVREAIRVSKIPDAKSPLPVFAYTRIVFTDQVLKFLSQDELVYTFGETVALGASGIVIWGTLSIMRSMKSCLLLDNYMETILNPYIINVTLAAKMCSQVLCQEQGVCIRKNWNSSDYLHLNPDNFAIQLEKGGKFTVRGKPTLEDLEQFSEKFYCSCYSTLSCKEKADVKDTDAVDVCIADGVCIDAFLKPPMETEEPQIFYNASPSTLS

Legend:
4T1 tumors = assay: Antitumor efficacy in mouse 4T1 syngeneic breast tumor model; type: in vivo; settings: 2 mg/kg DOX; (MST treated/MST control −1)×100
Method: Efficacy of the nanoparticles produced in Example 2 was evaluated in a mouse 4T1 syngeneic breast tumor model, in which the host BALB/c mouse is immune-competent, and the tumor growth and metastatic spread of 4T1 cells closely mimic human breast cancer. Female BALB/c mice at 6 weeks were ordered and within a one-week stay, 50 μL of 1×10^7 4 T1 cells/mL in PBS was injected at the mammary fat pad on the right flank of the mice. Tumor size was calculated using V=0.5×width^2×length.
The nanoparticles with encapsulated DOX produced in Example 2 were used to treat tumors in a mouse 4T1 syngeneic breast tumor model BALB/c mice. The mice were randomly assigned into 4 groups and injected with saline, free DOX in saline, DOX-PLGA-PEG-NPs and DOX-PLGA-PEG-PH20-NPs (PH20 activity of DOX-PLGA-PEG-PH20-NPs is 500 U/mouse) at 2 mg/kg mice of DOX at 9, 11, 14, 17, 20 days after inoculation of 4T1 cells in the mice. The tumors reached a size of 150-250 mm^3 at day 9 before treatment. Tumor sizes were monitored throughout the whole study (FIG. 14A). The survival rate was studied based on the number of mice in each group that survived over time. MST (day) was defined as the time at which half of the mice had died.
The percentage ILS (%) was calculated using the following equation: ILS (%)=[(MST of treated group/MST of control group) −1]*100. […]

[1] = test system: pericellular HA matrix of 4T1 cells; assay: Degradation of pericellular HA of 4T1 cells (HA staining, RBC exclusion assay); type: cell-based, mouse
Method: The nanoparticles produced in Example 2 were tested on tumor cell line 4T1, which synthesizes HA and forms a layer of HA matrix around the cells. 4T1 cells were maintained in a RPMI-1640 medium (ATCC) containing 10% fetal bovine serum in 5% CO2 in an incubator at 37° C. 4T1 cells were cultured on round glass coverslips in a 12-well plate for one day to reach 70% confluency before treatment with the nanoparticles. DiD-labeled PLGA-PEG-NPs (no PH20 activity) and DiD-labeled PLGA-PEG-PH20-NPs (conjugated 10 U/mL PH20 activity) were used for this test. The amount of nanoparticles in all samples was equalized via fluorescence intensity. […]
The 4T1 cells were then washed and fixed and observed under a confocal microscope (Olympus IX81, 60×, C.A.=80 μm) with 405 nm and 635 nm lasers for DAPI and DiD respectively. […] The total fluorescence intensity of DiD was quantified via Image J and averaged by the number of cells.
RBCs were collected fresh from mice and washed three times with PBS before being resuspended in 2% formaldehyde in PBS for fixation of the RBCs overnight at room temperature. […] The areas of exclusion (no RBCs) were quantified through ImageJ. […]

[2] = test system: pericellular HA layer around PC3 cells; assay: Degradation of pericellular HA layer around PC3 cells by free PH20; type: cell-based, human; settings: 1000 U of free PH20 for 1 h
[3] = free PH20, cited from earlier work

| Molecule | percentage increased life span ILS (%) (4T1 tumors) | amount of HA around 4T1 cells, RBC exclusion ([1]; 1000 U/mL of PH20, 2 h, 37° C.) | degradation of pericellular HA layer around 4T1 cells ([1]; 3000 U of free PH20 for 1 h) | degradation of pericellular HA layer [2] | circulation half-life [3] | circulation half-life ([3]; listed as PH20) |
| --- | --- | --- | --- | --- | --- | --- |
| COc1cccc2c1C(=O)c1c(O)c3c(c(O)c1C2=O)C[C@@](O)(C(=O)CO)C[C@@H]3O[C@H]1C[C@H](N)[C@H](O)[C@H](C)O1 [Free DOX, Doxorubicin Hydrochloride salt] | 10% | – | – | – | – | – |
| B1 | – | reduced to a low level that could no longer block RBCs | sufficient to degrade the pericellular HA layer around 4T1 cells | sufficient to degrade the pericellular HA layer around PC3 cells | less than 3 min | 3 min |
